The values that follow come from patent US20110129457A1.

The target of assay [1] is fully lipid-modified Shh secreted by human HT29 cells (human) (UniProt Q15465). Description: cell-based or functional assay.
Assay [2] deals with Shh649 (ShhC-Cys conjugated with DyLight 649 Maleimide) (human) (UniProt Q15465). Description: FACS competition: 1 nM Shh649 preincubated with 5E1, then bound to Ptch1-expressing 293 cells; the blocked partner is Ptch1.
Assay [3] concerns the target Human Ihh (residues 29-202), N-terminal His6-tag (human) (UniProt Q14623). The assay can be described thus: SPR (BIAcore-2000), 5E1 IgG immobilized on CM5, Hh injected, 1:1 Langmuir fit.
The target of assay [4] is Shh (human Sonic hedgehog residues 25-197, N-terminal His6-tag) (human) (UniProt Q15465). The description is as above.
For assay [5], the target named is biotinylated-ShhN-Cys (human Shh residues 24-197, N-terminal His6-tag, biotin conjugated) (human) (UniProt Q15465). Description: competition ELISA: 5E1 against immobilized Hhip1β12 for biotinylated ShhN-Cys.

A word on the Kd: it is a measure of binding affinity in units of concentration. Read a low Kd as tighter binding. For orientation: IC50 means the midpoint of a concentration-inhibition curve. Read a high IC50 as weaker potency.

Sequence of Human Ihh (residues 29-202), N-terminal His6-tag (human) (Q14623 other isoform, or with tags, fused parts or gaps limits assumed): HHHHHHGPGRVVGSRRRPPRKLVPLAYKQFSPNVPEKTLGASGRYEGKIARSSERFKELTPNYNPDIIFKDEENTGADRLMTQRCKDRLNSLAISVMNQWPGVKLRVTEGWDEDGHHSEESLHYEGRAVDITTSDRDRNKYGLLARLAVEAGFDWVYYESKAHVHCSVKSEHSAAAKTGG

For the substance “Hhip1ECD (Hhip1 extracellular domain, residues 20-667), N-terminally His6-tagged (from UniProt Q96QV1 20-667) (receptor)”, the IC50, inhibition of Gli-luciferase activity in HT29/S12 co-culture in assay [1] came out at 5.3 nM.

With anti-Shh monoclonal antibody 5E1, in assay [2], the IC50 (read off the curve) worked out at 0.5 nM. Moreover, the equilibrium dissociation constant (Kd) in assay [3] and in assay [4] was 3 nM throughout. Moreover, in assay [5], the 50% inhibitory concentration (IC50) came out at 23 nM.
